According to the supplement of paper PMC12042874:
± gives the uncertainty stated by the source.

Experiment: amyloid nucleation score (Sup35N fusion, yeast selection) (log enrichment); library NNK1; higher = more nucleation; inactive = no reads after selection
Procedure, shortened: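 Random libraries were run with three technical output replicates. In each, psi-negative yeast expressing Sup35N fused to peptides of 20 random codons were induced 24 hours with 100 μM copper sulfate and grown 7 days at 30°C on medium lacking adenine and uracil, and input and output plasmid inserts were Illumina-sequenced. The nucleation score is the DiMSum log enrichment of output over input reads, centred on the mode score of non-aggregating sequences, and sequences under 100 input reads were excluded.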

Substance	amyloid nucleation score
PNIEPCLSSFVSKSLDDPRT	-0.127 ± 0.37
PNIKLSDRLGIIRREIWMVV	0.54 ± 0.39
PNPWRLRWLLALDMNLVGLQ	0.376 ± 1.1
PNQVYGTAFCGDEKNRMRWK	4.6 ± 0.079
PNYIRGSIINYILEYSISIN	0.02 ± 0.39
PPHLLFCYNMVLTWWLYAFA	0.088 ± 1.2
PQLRLLPGVLGNPGNGHSRI	4.59 ± 0.098
PRSDNSFSVQVEFVDICEVK	-0.437 ± 0.56
PSGTGWRLDGSV	0.09 ± 0.38
PSIGMVF	1.77 ± 0.53
PSNPFHCVMKARKSLNGIDR	-0.09 ± 0.29
PSRDSV	-1.06 ± 1.2
PSSGLFASLIVMSTVRTDLI	-0.307 ± 0.38
PSSLLNMDTTRGYHDPEWGI	-0.381 ± 0.3
PSVTTS	-0.482 ± 0.58
PSWSPKAIKFQHVLYFVKFL	0.236 ± 0.59
PTAEV	0.545 ± 0.76
PTKSIMLFCLGLFCGYLARA	2.91 ± 0.093
PTRYRKLKRQAKATYIHSNP	-0.552 ± 1.6
PVCHLSGFFFLYDSGCSD	4.82 ± 0.069
PVNLGSDVYYNVRSQCGSMY	-0.218 ± 0.23
PVRQSL	0.343 ± 0.33
PVVCYTVAFVTGSTDVV	-0.139 ± 1.3
PWADVR	0.721 ± 0.38
PWDSHSHHSTNRQLRFSSSG	-0.397 ± 0.6

Substance	amyloid nucleation score
PYFDTEHERVKDH	0.398 ± 0.62
PYGIGIFNYLWATGMNLSQA	-0.071 ± 0.43
PYIRVRLFMVVY	0.659 ± 0.56
PYLVVVTHMAMASHWDLLLP	0.25 ± 0.41
PYSAQAFERRSHAIRGVSKN	-0.438 ± 0.44
QAKLPLTIDCMKCGTVGTGR	-0.16 ± 0.34
QANAMNYKEKLFNFRYRGAM	-0.722 ± 0.53
QAVRDVRLCN	-0.073 ± 0.61
QCWEWIR	-0.564 ± 0.84
QCYIGVKYHSALVWDHTPEA	2.29 ± 0.61
QDFSVTPHGV	0.228 ± 0.62
QDGLGLTDAVRRTGFVGRTH	0.197 ± 0.86
QFLALVCFCIPRLVRLAGYE	-1.35 ± 1.1
QFMGCRFKLSDSSIWKKSLR	0.381 ± 0.64
QFPERWDPFLPMSRASRYYH	0.865 ± 0.69
QFSRTRFFICGLGRSAPAVR	1.53 ± 0.85
QGGTVCLEF	-0.578 ± 0.34
QGILCFSIHSSNSMTGNTVF	0.038 ± 0.25
QGNHVKCVLCRVIPMRCLGL	-1.41 ± 1.1
QGRLYSH	0.438 ± 0.39
QGSYLHLSIKWLAFRSMS	0.19 ± 0.4
QGTRGRCGFSRDEVECVVRR	-0.673 ± 1
QHHMVEIWPSDECVEWLVSS	-0.034 ± 0.22
QHLRFSFVPE	0.312 ± 0.46
QHPIWCNRSPLTHDRDTVG	0.239 ± 0.24

Substance	amyloid nucleation score
QHVMPWPWWMGLSSLDRWYL	1.44 ± 0.49
QHWNGTNNMILYYFPRPSAR	5.25 ± 0.065
QIQIT	0.152 ± 1
QIVRTRFNRYR	-0.313 ± 1.1
QKGLDVVWYDTRSDMYNKIL	-0.569 ± 0.7
QKRAMYDLGCSFSLFNLCYQ	5.28 ± 0.062
QKYPPRGNRFSLCRITVSCF	0.22 ± 0.89
QKYPSWINFPYF	-0.935 ± 0.97
QLAERTGVHCSQFTKWFFKM	1.72 ± 0.38
QLEDAVKMGLVEFEGRSHGS	0.78 ± 0.29
QLLFRRYKMGIVSRYSVITR	-0.339 ± 0.53
QLLSISRILLMNRELRRR	-0.623 ± 1
QLTVYMFFCYC	5.378 ± 0.044
QLVIILERRSWCHIL	2.42 ± 0.27
QMNGWVCCFSQGQRMFVLLM	0.977 ± 0.47
QMTVGQYSCL	0.45 ± 1.1
QMYYFRCGQFTQGGNTQWLW	0.632 ± 0.39
QNHSGPGLMIRILANAQKWF	-0.93 ± 2.4
QNMWIHCWCGRGGMMTREPG	4.73 ± 0.052
QPFALNRLYHT	-0.591 ± 0.62
QQVSVLILPALTKGRKVV	-0.991 ± 0.69
QRCYCGSCDWLRAMFVCWGL	inactive
QRKYNDLFWLTSPFSQSMWM	0.997 ± 1.1
QRSCNAVTFVGCQYNFFPTE	7.091 ± 0.05
QRSLLDDRYNAICSSNTNVE	0.184 ± 0.35

Substance	amyloid nucleation score
QRVGCKW	-0.771 ± 0.88
QRVRNRM	0.03 ± 0.33
QSVQHFGGYTKTLGASMGTF	-0.797 ± 2.4
QSVWEYNGTFSLRYRDMTGY	0.477 ± 0.65
QTRRVVHSGN	0.284 ± 0.81
QTVGKVDVVDCLVLVVRLTI	-0.003 ± 0.57
QVCLNDRNSSYVMRDICVY	-0.334 ± 1.2
QVDHKIWKGTVYDLSMGMM	-0.35 ± 0.46
QVHPPMTTGPC	0.291 ± 0.53
QVNNPSTWLMRNQIDQKLLR	-1.8 ± 1.7
QVSTNLVWDL	0.614 ± 1.2
QVVFE	0.1 ± 0.68
QVYEDGRAICHLTLGRDCNL	2.22 ± 0.47
QWCVKESAFIYEYRLSGDCR	0.877 ± 0.32
QYFSWGRVATCSACG	0.309 ± 0.62
QYHLWFMCAAVDRMKNGPFG	0.049 ± 0.36
QYSGYNRRDDSFPSWGCLLT	inactive
RADGLHASETVGSLL	-1.13 ± 2.7
RAFNRIINHRTEGNNPYYFL	inactive
RAHNKISDDTRAFMGSIFSE	-0.05 ± 1.4
RAHVLLLFMNCRRCKQTMIR	-0.88 ± 1.1
RAIMRKIYYHVMMIWI	0.153 ± 0.41
RAMCKNQCSYVMR	0.003 ± 0.37
RAMDYFALEIQLVPRRLVQL	0.18 ± 0.41
RAMTVLLGGNFQMIIKTFEL	3.09 ± 0.074

Substance	amyloid nucleation score
RARRGWSTGDEQHMSGKGIK	0.097 ± 0.49
RASHGAYDNFRGKKFMMRVM	-1.01 ± 0.54
RATCVFCYTICFSWPSVWTF	3.5 ± 0.062
RAWQHNFGKIMRSPRVFVRW	-1.4 ± 0.94
RCEGYFSVDVRGYSMLEIPG	-0.365 ± 1.3
RCISIRAYVTLFRNEYLCSN	4.86 ± 0.1
RCLGVCYTLDVFRSRMLDKL	-0.097 ± 0.44
RCLQKPMRLRSQKIKQCVLR	-0.341 ± 1.4
RCMGGGFRRRVNMYETPGIR	-0.387 ± 0.79
RCMNWVKCDRNPCVMLSIGT	inactive
RCSFIS	-0.682 ± 0.75
RCSFSGNYIIILLAVRTYFE	1.1 ± 0.47
RCSNLGFKFWR	-0.332 ± 0.39
RCVFNRIKDFSVRDRWSFSG	1.03 ± 0.73
RCVIDDKLWGISLRGPMMGV	-1.48 ± 1.9
RCVMRAHFSTWLHKVSTSVW	0.677 ± 0.54
RCVSAFLLLFSMHRHG	1.28 ± 0.36
RCYHWVDLVCVRVGTRACFL	0.877 ± 1.1
RCYVDKSYNGDWASSAGQKH	0.065 ± 0.44
RDCPTNIVAGTLLCLMAEWT	-0.549 ± 1
RDGIMYG	0.505 ± 0.39
RDHTIRPLWIAGSHMQFLNR	0.477 ± 0.34
RDIYRVYNV	-1.05 ± 0.72
RDLPFVTSSLCCSNTSGCMF	0.429 ± 0.53
RDRDVEFTNDL	0.614 ± 0.75

Substance	amyloid nucleation score
RDSAL	0.274 ± 0.4
RDTHRDNRNLPSHLSSVYRK	-1.35 ± 2.4
RDTNVWFHT	-0.267 ± 1.1
RDWLLTLVLTLSQGPTTCAT	0.247 ± 1.4
RDYYIVNSGLKLEYHLLI	3.77 ± 0.051
REVWRLFILSRVVGYKVIL	0.142 ± 0.22
REYNSYLLGVGHNLQLRSYI	inactive
RFHSFYNPQSSIDITLVGGF	4.65 ± 0.089
RFHWACKVYLSNYMV	0.69 ± 0.25
RFIIFNHDLGLRD	-0.384 ± 0.51
RFKCDVTTVDW	0.108 ± 0.24
RFRFMLVFSNLSLL	-0.022 ± 0.53
RFRFNWLNSQNLQRFVGTFK	0.433 ± 0.3
RFSRVFIRLMGDVALSSGLL	0.532 ± 0.53
RFTNIFAKNRLCRLDMRRNT	-0.211 ± 0.56
RFVCQPNRWFHNKRGVGRET	0.653 ± 0.64
RGAQLIRRSFKTVAGLGFIM	-0.767 ± 1.4
RGCVGRSFSDEES	-1.22 ± 1.5
RGDLF	3.04 ± 0.07
RGFMWLACITCFYAVCYNVS	0.005 ± 0.45
RGFQTKSKGLARRSMYKCWE	-0.275 ± 0.31
RGFWLERCSWTF	-0.003 ± 0.37
RGGMF	-0.252 ± 0.67
RGGNIVKHRLFGPDGGAYWK	-0.591 ± 0.79
RGGRRDWLCIFRGRLGVA	-1.08 ± 0.78

Substance	amyloid nucleation score
RGISYLV	-0.212 ± 0.68
RGLVFEGKLAFTVATVVFFW	-1.19 ± 1.4
RGRRDAGGYRSKSFLGAWGV	0.837 ± 0.21
RGTGLICCTNVCGRTWKGHN	7.406 ± 0.047
RHALIYMVQVAQAGWGGLEV	-0.767 ± 0.78
RHMRFPWLKAHVIFIMQWQR	1.16 ± 0.54
RHRVQTTPSSMSFV	-0.388 ± 0.96
RHSLIFDRTGRGYGARVPVE	inactive
RHSSYIGMCRT	1.66 ± 0.56
RHTETSLASSARKPALNPT	0.197 ± 0.41
RHVYW	0.551 ± 0.39
RIAFFS	1.25 ± 0.57
RIAVWSSGSYCMYYTCWCNH	-0.191 ± 0.24
RIDARILLITCL	-1.51 ± 2.4
RIDCYW	-0.858 ± 1.1
RIDQNICGIVNMVFR	6.311 ± 0.047
RIGFPSQSGLLVVAVLTQSA	-0.379 ± 0.43
RILKMYTYVLTMADHVLNKS	0.21 ± 0.2
RIMYSRLDYWLAYPVISERG	-0.057 ± 1.4
RINQVTGVVQLVFRCRNSRL	7.643 ± 0.047
RINSGHIK	0.247 ± 0.33
RIPRFLNSLSEYYYLDFHYG	1.15 ± 0.23
RISLRYGQRC	0.356 ± 0.28
